± gives the uncertainty stated by the source.
Test: protein stability index of a GFP-peptide fusion (yeast GPS) (PSI 1-4); higher = more stable; sorted into four equal gates, so the index is relative within each strain
In short: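 The protein stability index of a peptide was calculated by multiplying its read frequency in each gate by that gate's number and adding the products. The peptides were tiled 17-residue stretches of yeast proteins, fused downstream of GFP on a Cherry-expressing plasmid and carried in yeast as a pooled library. Mid-log cultures in leucine-free medium were sorted into four equal gates by GFP/Cherry ratio, and each gate's plasmids were PCR-amplified and Illumina-sequenced.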

LVPKRCLFESLSNEAAL [RPO31]
protein stability index (pdr5∆): 2.84 ± 0.2
protein stability index (ubr1∆): 2.78 ± 0.22

VPSHVPQVLINRDPVKH [SIR2]
protein stability index (doa10∆): 2.52 ± 0.13
protein stability index (pdr5∆): 3 ± 0.088
protein stability index (san1∆): 3.06 ± 0.12
protein stability index (ubr1∆): 2.76 ± 0.098

YNSVAEAKKFEPTYRLV [RPS24A]
protein stability index (doa10∆): 2.87 ± 0.14
protein stability index (pdr5∆): 2.95 ± 0.13
protein stability index (san1∆): 2.71 ± 0.18
protein stability index (ubr1∆): 2.74 ± 0.072

SAESWGTGRAVARIPRV [RPL4A]
protein stability index (doa10∆): 3.06 ± 0.19
protein stability index (pdr5∆): 3.51 ± 0.28
protein stability index (san1∆): 2.65 ± 0.21
protein stability index (ubr1∆): 2.75 ± 0.27

KKNLGRLTRLWIKNEQE [PRP8]
protein stability index (doa10∆): 1.72 ± 0.063
protein stability index (pdr5∆): 1.89 ± 0.063
protein stability index (san1∆): 1.25 ± 0.19
protein stability index (ubr1∆): 2.5 ± 0.25

PSPYKTTVYRYSAAKKI [YAR002W/NUP60]
protein stability index (doa10∆): 1.69 ± 0.051
protein stability index (pdr5∆): 1.98 ± 0.05
protein stability index (san1∆): 1.49 ± 0.069
protein stability index (ubr1∆): 1.67 ± 0.042

VKPHDEGSKSHPFGHAL [RPL27A]
protein stability index (doa10∆): 2.95 ± 0.064
protein stability index (pdr5∆): 2.97 ± 0.053
protein stability index (san1∆): 2.88 ± 0.08
protein stability index (ubr1∆): 3.1 ± 0.047

KLLKSLLLNYLELIGVL [MED7]
protein stability index (doa10∆): 1.86 ± 0.052
protein stability index (pdr5∆): 1.56 ± 0.052
protein stability index (san1∆): 1.14 ± 0.098
protein stability index (ubr1∆): 1.33 ± 0.058

PQEETITFLIEKAKEMI [ECM29]
protein stability index (doa10∆): 3.03 ± 0.092
protein stability index (pdr5∆): 3.18 ± 0.13
protein stability index (san1∆): 2.95 ± 0.069
protein stability index (ubr1∆): 3.16 ± 0.075

LLAREVLRLRGALVDRT [RPS0A]
protein stability index (doa10∆): 2.17 ± 0.21
protein stability index (pdr5∆): 2.15 ± 0.094
protein stability index (san1∆): 1.78 ± 0.15
protein stability index (ubr1∆): 2.03 ± 0.15

ISSGLLYLQDSNDKFVH [SRB8]
protein stability index (doa10∆): 1.94 ± 0.087
protein stability index (pdr5∆): 1.48 ± 0.13
protein stability index (san1∆): 1.25 ± 0.15
protein stability index (ubr1∆): 1.14 ± 0.07

VHNTVAAGNASSLPPGE [SNF5]
protein stability index (doa10∆): 2.82 ± 0.094
protein stability index (pdr5∆): 2.75 ± 0.071
protein stability index (san1∆): 2.94 ± 0.06
protein stability index (ubr1∆): 2.75 ± 0.077

KSDEAKWKPVLSHIVYF [RPN5]
protein stability index (doa10∆): 2.29 ± 0.067
protein stability index (pdr5∆): 2.21 ± 0.062
protein stability index (san1∆): 2.23 ± 0.058
protein stability index (ubr1∆): 2.03 ± 0.047

HSPFPFNRTKGKMVRAQ [PRP8]
protein stability index (doa10∆): 1.84 ± 0.2
protein stability index (pdr5∆): 1.16 ± 0.14
protein stability index (ubr1∆): 1.05 ± 0.094

GVPDDKWEQTYKKPTGG [FAS1]
protein stability index (doa10∆): 3.38 ± 0.07
protein stability index (pdr5∆): 3.29 ± 0.1
protein stability index (san1∆): 3.2 ± 0.093
protein stability index (ubr1∆): 3.09 ± 0.069

MIIDEGHRMKNAQSKLS [SNF2]
protein stability index (doa10∆): 1.45 ± 0.072
protein stability index (pdr5∆): 1.98 ± 0.061
protein stability index (san1∆): 1.67 ± 0.089
protein stability index (ubr1∆): 1.93 ± 0.089

KQQGVGLPTDAYVAIEQ [RPN8]
protein stability index (doa10∆): 2.78 ± 0.083
protein stability index (pdr5∆): 2.7 ± 0.15
protein stability index (san1∆): 2.89 ± 0.21
protein stability index (ubr1∆): 3.19 ± 0.1

MSPFLRKVVKPSSLNSD [SRB4]
protein stability index (doa10∆): 2.41 ± 0.058
protein stability index (pdr5∆): 2.87 ± 0.061
protein stability index (san1∆): 2.03 ± 0.081
protein stability index (ubr1∆): 2.34 ± 0.044

MSQAVNAKKRVFKTHSY [RPS15]
protein stability index (doa10∆): 2.57 ± 0.055
protein stability index (pdr5∆): 1.72 ± 0.035
protein stability index (san1∆): 2.19 ± 0.11
protein stability index (ubr1∆): 2.63 ± 0.061

SFKIFVDVLVISSHSHP [RRP42]
protein stability index (doa10∆): 1.21 ± 0.043
protein stability index (pdr5∆): 1.21 ± 0.047
protein stability index (san1∆): 1.19 ± 0.07
protein stability index (ubr1∆): 1.39 ± 0.032

FNQRDGEHEKSNILLNS [MED1]
protein stability index (doa10∆): 2.4 ± 0.087
protein stability index (pdr5∆): 1.96 ± 0.11
protein stability index (san1∆): 2.99 ± 0.17
protein stability index (ubr1∆): 3.21 ± 0.11

ATAFNKTRGPFHFRAPS [RPL16A]
protein stability index (doa10∆): 2.67 ± 0.12
protein stability index (pdr5∆): 3.07 ± 0.1
protein stability index (san1∆): 2.56 ± 0.094
protein stability index (ubr1∆): 2.71 ± 0.072

HSDMASKMYNTDKKAFL [PRP8]
protein stability index (doa10∆): 2.91 ± 0.057
protein stability index (pdr5∆): 2.65 ± 0.056
protein stability index (san1∆): 2.89 ± 0.051
protein stability index (ubr1∆): 2.98 ± 0.059

TRYNRDYMLSMANIPER [SNU114]
protein stability index (doa10∆): 1.48 ± 0.073
protein stability index (pdr5∆): 2.44 ± 0.055
protein stability index (san1∆): 2.62 ± 0.1
protein stability index (ubr1∆): 1.43 ± 0.047

FYDIRSLLERHIPRLIP [YJL039C/NUP192]
protein stability index (doa10∆): 2.79 ± 0.049
protein stability index (pdr5∆): 2.46 ± 0.046
protein stability index (san1∆): 2.2 ± 0.048
protein stability index (ubr1∆): 2.77 ± 0.055

ITKDHKVLARQQLQVLA [FAS2]
protein stability index (doa10∆): 1.29 ± 0.044
protein stability index (pdr5∆): 1.45 ± 0.062
protein stability index (san1∆): 1.82 ± 0.099
protein stability index (ubr1∆): 1.3 ± 0.047

AEKYQERSLRQKYNLLH [SNM1]
protein stability index (doa10∆): 2.32 ± 0.057
protein stability index (pdr5∆): 2.73 ± 0.074
protein stability index (san1∆): 3.23 ± 0.067
protein stability index (ubr1∆): 3.12 ± 0.083

MVEGDSYVETLDSMIEL [MED1]
protein stability index (doa10∆): 3.25 ± 0.084
protein stability index (pdr5∆): 3.24 ± 0.1
protein stability index (san1∆): 3.33 ± 0.051
protein stability index (ubr1∆): 3.19 ± 0.053

ADQEQAKLIRSAIEHTT [RPO21]
protein stability index (doa10∆): 3.19 ± 0.12
protein stability index (pdr5∆): 2.96 ± 0.15
protein stability index (san1∆): 2.82 ± 0.1
protein stability index (ubr1∆): 2.84 ± 0.1

PLINLALIDTEFANFEL [YML103C/NUP188]
protein stability index (doa10∆): 2.71 ± 0.083
protein stability index (pdr5∆): 2.72 ± 0.071
protein stability index (san1∆): 2.5 ± 0.089
protein stability index (ubr1∆): 2.95 ± 0.073

RKNDNANDHDESIDVDM [SMC3]
protein stability index (doa10∆): 2.83 ± 0.24
protein stability index (pdr5∆): 2.72 ± 0.23
protein stability index (san1∆): 3.32 ± 0.11
protein stability index (ubr1∆): 3.19 ± 0.094

FTKPPANETDKRPTPPS [YOR098C/NUP1]
protein stability index (doa10∆): 3.03 ± 0.043
protein stability index (pdr5∆): 3.05 ± 0.048
protein stability index (san1∆): 3.14 ± 0.039
protein stability index (ubr1∆): 3.15 ± 0.037

SVVLTLQAFGESESTTN [RPB3]
protein stability index (doa10∆): 2.42 ± 0.12
protein stability index (pdr5∆): 2.51 ± 0.088
protein stability index (san1∆): 1.67 ± 0.11
protein stability index (ubr1∆): 1.18 ± 0.052

LEEKKKRPNNKTLEKLE [IRR1]
protein stability index (doa10∆): 3.55 ± 0.14
protein stability index (pdr5∆): 3.43 ± 0.1
protein stability index (san1∆): 3.39 ± 0.092
protein stability index (ubr1∆): 3.27 ± 0.13

EFQIEDAIWSLVFQLAK [SRB8]
protein stability index (doa10∆): 3.63 ± 0.18
protein stability index (pdr5∆): 3.36 ± 0.23

ALNGIDINTVNTNLMNG [GRR1]
protein stability index (doa10∆): 3.29 ± 0.051
protein stability index (pdr5∆): 3.2 ± 0.052
protein stability index (san1∆): 3.08 ± 0.042
protein stability index (ubr1∆): 3.1 ± 0.045

QNDELKFQGVLESEAQK [RPC34]
protein stability index (doa10∆): 3.41 ± 0.11
protein stability index (pdr5∆): 3.21 ± 0.11
protein stability index (san1∆): 3.23 ± 0.061
protein stability index (ubr1∆): 2.93 ± 0.075

GSLKLIELLCGLGKSAV [NAS6]
protein stability index (san1∆): 3.08 ± 0.098

SNEAAKPSFSFPGKPVD [YOR098C/NUP1]
protein stability index (doa10∆): 2.84 ± 0.048
protein stability index (pdr5∆): 2.96 ± 0.048
protein stability index (san1∆): 3.01 ± 0.038
protein stability index (ubr1∆): 2.95 ± 0.047

— the supplement of paper PMC9732359
